Substitutions are numbered along the chain they refer to.
T1: VEGF (Example 4) (UniProt P15692 27-191)
T1 chain: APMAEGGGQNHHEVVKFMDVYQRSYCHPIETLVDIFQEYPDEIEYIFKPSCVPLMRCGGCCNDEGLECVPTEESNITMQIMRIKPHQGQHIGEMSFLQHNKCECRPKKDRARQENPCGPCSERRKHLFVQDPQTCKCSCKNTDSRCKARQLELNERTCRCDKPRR

T2: Placenta Growth Factor (PlGF), human (human, UniProt P49763 21-149)
T2 chain: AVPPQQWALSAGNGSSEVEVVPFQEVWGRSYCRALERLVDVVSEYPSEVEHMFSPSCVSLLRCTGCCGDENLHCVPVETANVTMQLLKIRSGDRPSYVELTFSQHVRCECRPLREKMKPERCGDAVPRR

B1: 2 (antibody, V domains shown)
V domain 1: FQPVLHQPPAMSSALGTTIRLTCTLRNDHDIGVYSVYWYQQRPGHPPRFLLRYFSQSDKSQGPQVPPRFSGSKDVARNRGYLSISELQPEDEAMYYCAMGARSSVTHVFGSGTQLTVLS
V domain 2: QPVLHQPPAMSSALGTTIRLTCTLRNDHDIGVYSVYWYQQRPGHPPRFLLRYFSQSDKSQGPQVPPRFSGSKDVARNRGYLSISELQPEDEAMYYCAMGARSSVTHVFGSGTQLTVLS
B2: 4 (antibody, V domains shown)
V domain 1: B1 V domain 1
V domain 2: B1 V domain 2
B3: 7 (antibody, V domains shown)
V domain 1: B1 V domain 1 with F1P
V domain 2: B1 V domain 2
B4: 6 (antibody, V domains shown)
V domain 1: B1 V domain 1 with F1P
V domain 2: B1 V domain 2
B5: 5 (antibody, V domains shown)
V domain 1: B1 V domain 1 with F1P
V domain 2: B1 V domain 2
B6: 3 (antibody, V domains shown)
V domain 1: B1 V domain 1
V domain 2: B1 V domain 2
B7: HC 4/SLC 3 (antibody)
chain 1: GQGTLVTVSSASTKQPVLHQPPAMSSALGTTIRLTCTLRNDHDIGVYSVYWYQQRPGHPPRFLLRYFSQSDKSQGPQVPPRFSGSKDVARNRGYLSISELQPEDEAMYYCAMGARSRCWPRGFQSKHNSVTHVFGSGTQLTVLSQPKATPSVTLFPPSSEELQANKATLVCLMNDFYPGILTVTWKADGTPITQGVEMTTPSKQSNNKYAASSYLSLTPEQWRSRRSYSCQVMHEGSTVEKTVAPAECS
chain 2: MSWAPVLLMLFVYCTGCGPQPVLHQPPAMSSALGTTIRLTCTLRNDHDIGVYSVYWYQQRPGHPPRFLLRYFSQSDKSQGPQVPPRFSGSKDVARNRGYLSISVTHVFGSGTQLTVLSQPQVQLVQ
B8: HC 4/SLC 8 (antibody)
chain 1: B7 chain 1
chain 2: MSWAPVLLMLFVYCTGCGPQPVLHQPPAMSSALGTTIRLTCTLRNDHDIGVYSVYWYQQRPGHPPRFLLRYFSQSDKSQGPQVPPRFSGSKDVARNRGYLSISVTHVFGSGTQLTVLSQPKATPSQVQLVQ
B9: HC 7/SLC 2 (antibody)
chain 1: GQGTLVTVSSASTKGPSQPVLHQPPAMSSALGTTIRLTCTLRNDHDIGVYSVYWYQQRPGHPPRFLLRYFSQSDKSQGPQVPPRFSGSKDVARNRGYLSISELQPEDEAMYYCAMGARSRCWPRGFQSKHNSVTHVFGSGTQLTVLSQPKATPSVTLFPPSSEELQANKATLVCLMNDFYPGILTVTWKADGTPITQGVEMTTPSKQSNNKYAASSYLSLTPEQWRSRRSYSCQVMHEGSTVEKTVAPAECS
chain 2: MSWAPVLLMLFVYCTGCGPQPVLHQPPAMSSALGTTIRLTCTLRNDHDIGVYSVYWYQQRPGHPPRFLLRYFSQSDKSQGPQVPPRFSGSKDVARNRGYLSISVTHVFGSGTQLTVLSQQVQLVQ
B10: HC 9/SLC 4 (antibody)
chain 1: GQGTLVTVSSASTKGPSVFQPVLHQPPAMSSALGTTIRLTCTLRNDHDIGVYSVYWYQQRPGHPPRFLLRYFSQSDKSQGPQVPPRFSGSKDVARNRGYLSISELQPEDEAMYYCAMGARSRCWPRGFQSKHNSVTHVFGSGTQLTVLSQPKATPSVTLFPPSSEELQANKATLVCLMNDFYPGILTVTWKADGTPITQGVEMTTPSKQSNNKYAASSYLSLTPEQWRSRRSYSCQVMHEGSTVEKTVAPAECS
chain 2: MSWAPVLLMLFVYCTGCGPQPVLHQPPAMSSALGTTIRLTCTLRNDHDIGVYSVYWYQQRPGHPPRFLLRYFSQSDKSQGPQVPPRFSGSKDVARNRGYLSISVTHVFGSGTQLTVLSQPKQVQLVQ
B11: HC 9/SLC 5 (antibody)
chain 1: B10 chain 1
chain 2: MSWAPVLLMLFVYCTGCGPQPVLHQPPAMSSALGTTIRLTCTLRNDHDIGVYSVYWYQQRPGHPPRFLLRYFSQSDKSQGPQVPPRFSGSKDVARNRGYLSISVTHVFGSGTQLTVLSQPKAQVQLVQ

Target: T1, VEGF (Example 4)
Assay: binding

EC50	Binder
0.016 nM	B1
0.015 nM	B2
0.013 nM	B3
0.012 nM	B4
0.012 nM	B5
0.015 nM	B6

These binders were tested against ErbB3 (UniProt P21860 20-643) (assay: binding).
ErbB3, sequence (P21860 20-643): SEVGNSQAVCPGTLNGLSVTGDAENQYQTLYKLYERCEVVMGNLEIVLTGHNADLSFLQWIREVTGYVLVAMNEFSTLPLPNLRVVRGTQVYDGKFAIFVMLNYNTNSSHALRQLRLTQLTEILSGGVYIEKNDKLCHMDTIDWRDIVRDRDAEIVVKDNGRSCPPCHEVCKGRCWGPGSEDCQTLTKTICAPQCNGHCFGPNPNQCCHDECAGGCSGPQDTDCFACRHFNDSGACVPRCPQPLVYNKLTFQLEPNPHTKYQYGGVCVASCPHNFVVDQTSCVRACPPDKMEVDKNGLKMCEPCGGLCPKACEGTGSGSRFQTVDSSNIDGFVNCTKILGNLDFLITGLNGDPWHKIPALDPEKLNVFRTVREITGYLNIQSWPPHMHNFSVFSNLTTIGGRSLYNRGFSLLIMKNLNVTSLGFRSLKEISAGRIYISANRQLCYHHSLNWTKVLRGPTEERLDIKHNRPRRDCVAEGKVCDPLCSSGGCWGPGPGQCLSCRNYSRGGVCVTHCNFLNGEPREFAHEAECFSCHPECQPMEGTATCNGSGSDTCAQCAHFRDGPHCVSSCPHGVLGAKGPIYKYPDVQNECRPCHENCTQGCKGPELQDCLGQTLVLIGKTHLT

EC50	Binder
0.051 nM	B1
0.046 nM	B2
0.037 nM	B3
0.048 nM	B4
0.058 nM	B5
0.05 nM	B6

Each binder was assayed against Hepatocyte Growth Factor (HGF), human (human, UniProt P14210 32-728) (assay: ELISA).
Hepatocyte Growth Factor (HGF), human, sequence (P14210 32-728): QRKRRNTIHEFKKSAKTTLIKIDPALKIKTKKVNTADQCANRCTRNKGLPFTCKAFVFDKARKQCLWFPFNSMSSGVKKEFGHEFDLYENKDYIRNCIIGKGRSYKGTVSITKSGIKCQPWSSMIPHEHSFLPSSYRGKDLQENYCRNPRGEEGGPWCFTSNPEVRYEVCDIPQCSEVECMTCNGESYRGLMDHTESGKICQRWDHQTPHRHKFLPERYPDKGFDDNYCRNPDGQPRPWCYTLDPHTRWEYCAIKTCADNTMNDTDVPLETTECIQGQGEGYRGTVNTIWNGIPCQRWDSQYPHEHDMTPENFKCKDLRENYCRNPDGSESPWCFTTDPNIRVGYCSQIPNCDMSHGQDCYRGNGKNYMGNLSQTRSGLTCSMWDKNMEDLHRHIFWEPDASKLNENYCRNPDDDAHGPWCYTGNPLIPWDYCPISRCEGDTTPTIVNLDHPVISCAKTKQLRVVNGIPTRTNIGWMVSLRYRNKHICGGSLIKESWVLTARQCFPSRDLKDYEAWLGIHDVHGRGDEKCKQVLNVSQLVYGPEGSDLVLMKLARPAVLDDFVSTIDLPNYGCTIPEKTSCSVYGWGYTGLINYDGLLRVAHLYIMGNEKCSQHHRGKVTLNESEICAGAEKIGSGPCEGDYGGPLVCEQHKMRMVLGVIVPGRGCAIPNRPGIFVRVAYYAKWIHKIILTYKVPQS

EC50	Binder
0.06 nM	B7
0.061 nM	B8
0.057 nM	B9
0.063 nM	B10
0.065 nM	B11

Target: T2, Placenta Growth Factor (PlGF), human
Assay: ELISA

EC50	Binder
0.147 nM	B7
0.18 nM	B8
0.2 nM	B9
0.164 nM	B10
0.172 nM	B11

Target: T1, VEGF (Example 4)
Assay: VEGF-KDR inhibition

IC50	Binder
0.391 nM	B1
0.449 nM	B2
0.362 nM	B3
0.589 nM	B4
0.409 nM	B5
0.429 nM	B6
